Molecular target: the molecule itself
Experiment: crystal structure

B1: Mycobacterium tuberculosis class II fructose-1,6-bisphosphatase (enzyme)
chain: MELVRVTEAGAMAAGRWVGRGDKEGGDGAAVDAMRELVNSVSMRGVVVIGEGEKDHAPMLYNGEEVGNGDGPECDFAVDPIDGTTLMSKGMTNAISVLAVADRGTMFDPSAVFYMNKIAVGPDAAHVLDITAPISENIRAVAKVKDLSVRDMTVCILDRPRHAQLIHDVRATGARIRLITDGDVAGAISACRPHSGTDLLAGIGGTPEGIIAAAAIRCMGGAIQAQLAPRDDAERRKALEAGYDLNQVLTTEDLVSGENVFFCATGVTDGDLLKGVRYYPGGCTTHSIVMRSKSGTVRMIEAYHRLSKLNEYSAIDFTGDSSAVYPLP
notes: also called MtFBPaseII; MtFBPase
- stoichiometry N: 4
